Data taken from patent US20120316071A1 (published 2012).
Positions count from the first letter of the chain named. Names may count otherwise. Blank lines part the entries; values can stand above or below the binder they belong to.

Key:
[1] = molecular target: T1, rHuman Erythropoietin R/Fc Chimera, CF (R&D Systems Cat#963-ER) (human, UniProt P19235 25-250); assay: ECL multispot (MSD) assay, spotted antigen; Fab 0.20 (head prints uM)
T1 construct: Bought recombinant protein; also called EPO R; EPO R/Fc; Fc part of the bought chimera not given
T1 sequence (looked up): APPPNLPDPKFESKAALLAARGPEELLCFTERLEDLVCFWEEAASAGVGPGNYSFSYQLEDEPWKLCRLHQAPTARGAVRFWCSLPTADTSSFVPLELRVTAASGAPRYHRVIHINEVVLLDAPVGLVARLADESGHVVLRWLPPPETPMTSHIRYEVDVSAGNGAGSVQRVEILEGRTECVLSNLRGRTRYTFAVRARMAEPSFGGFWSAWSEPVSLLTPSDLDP

[2] = molecular target: T2, Recombinant Human DLL4 (R&D Systems Cat#1506-D4/CF) (human, UniProt Q9NR61 27-524); assay: as above
T2 construct: Bought recombinant protein; also called delta-like protein 4

[3] = molecular target: T3, rHuman ErbB2/Fc Chimera, CF (R&D Systems Cat#1129-ER) (human, UniProt P04626 23-652); assay: as above
T3 construct: Bought recombinant protein; Fc part of the bought chimera not given

[4] = molecular target: T4, rHuman EGF R/Fc Chimera, CF (R&D Systems Cat#344-ER) (human, UniProt P00533 25-645); assay: as above
T4 construct: Bought recombinant protein; Fc part of the bought chimera not given

[5] = molecular target: T5, rHuman Notch-1/Fc Chimera, CF (R&D Systems Cat#3647-TK) (human, UniProt P46531 19-526); assay: as above
T5 construct: Bought recombinant protein; Fc part of the bought chimera not given

[6] = molecular target: T6, rHuman CD44/Fc Chimera, CF (R&D Systems Cat#3660-CD) (human, UniProt P16070 21-220); assay: as above
T6 construct: Bought recombinant protein; Fc part of the bought chimera not given

[7] = molecular target: T7, rHuman IGF-1 sR, CF (R&D Systems Cat#391-GR) (human, UniProt P08069 31-932); assay: as above
T7 construct: Bought soluble receptor; The column head prints only 'IGF-1'; also called insulin-like growth factor-1 soluble receptor

[8] = molecular target: T1, rHuman Erythropoietin R/Fc Chimera, CF …; assay: ECL multispot (MSD) assay, spotted antigen; Fab 2.00 (head prints uM)
[9] = molecular target: T2, Recombinant Human DLL4 (R&D Systems …); assay: as above
[10] = molecular target: T3, rHuman ErbB2/Fc Chimera, CF (R&D …); assay: as above
[11] = molecular target: T4, rHuman EGF R/Fc Chimera, CF (R&D …); assay: as above
[12] = molecular target: T5, rHuman Notch-1/Fc Chimera, CF (R&D …); assay: as above
[13] = molecular target: T6, rHuman CD44/Fc Chimera, CF (R&D Systems …); assay: as above
[14] = molecular target: T7, rHuman IGF-1 sR, CF (R&D Systems …); assay: as above
[15] = molecular target: T1, rHuman Erythropoietin R/Fc Chimera, CF …; assay: ECL multispot (MSD) assay, spotted antigen; Fab 20.00 (head prints uM)
[16] = molecular target: T2, Recombinant Human DLL4 (R&D Systems …); assay: as above
[17] = molecular target: T3, rHuman ErbB2/Fc Chimera, CF (R&D …); assay: as above
[18] = molecular target: T4, rHuman EGF R/Fc Chimera, CF (R&D …); assay: as above
[19] = molecular target: T5, rHuman Notch-1/Fc Chimera, CF (R&D …); assay: as above
[20] = molecular target: T6, rHuman CD44/Fc Chimera, CF (R&D Systems …); assay: as above
[21] = molecular target: T7, rHuman IGF-1 sR, CF (R&D Systems …); assay: as above
[22] = molecular target: T1, rHuman Erythropoietin R/Fc Chimera, CF …; assay: ECL multispot (MSD) assay, spotted antigen; Fab 200.00 (head prints uM)
[23] = molecular target: T2, Recombinant Human DLL4 (R&D Systems …); assay: as above
[24] = molecular target: T3, rHuman ErbB2/Fc Chimera, CF (R&D …); assay: as above
[25] = molecular target: T4, rHuman EGF R/Fc Chimera, CF (R&D …); assay: as above
[26] = molecular target: T5, rHuman Notch-1/Fc Chimera, CF (R&D …); assay: as above
[27] = molecular target: T6, rHuman CD44/Fc Chimera, CF (R&D Systems …); assay: as above
[28] = molecular target: T7, rHuman IGF-1 sR, CF (R&D Systems …); assay: as above
[29] = molecular target: T8, Recombinant Human DLL4 (delta-like protein 4) (human, UniProt Q9NR61 27-524); assay: ELISA, Fab on coated recombinant human DLL4, signal minus noise
T8 construct: Bought recombinant human DLL4 (R&D Systems Cat#1506-D4/CF); also called rHuman DLL4; Delta-like 4

[30] = molecular target: T8, Recombinant Human DLL4 (delta-like …); assay: ECL (MSD electrochemiluminescence) binding assay, Fab on immobilised recombinant human DLL4
[31] = molecular target: T9, rHuman EGF R/Fc Chimera, CF (R&D Systems Cat#344-ER) (human, UniProt P00533 25-645); assay: MSD Multispot ECL, antigen spotted on plate, Fab in solution; blank spot of the row 240
T9 construct: Bought recombinant Fc chimera; also called epidermal growth factor receptor; Fc part of the bought chimera not given

[32] = molecular target: T10, rHuman HGF R/c-MET/Fc Chimera, CF (R&D Systems Cat#358-MT/CF) (human, UniProt P08581 25-932); assay: as above
T10 construct: Bought recombinant Fc chimera; also called HGF R/Fc; hepatocyte growth factor receptor; Fc part of the bought chimera not given
T10 sequence (P08581 25-932, change not shown): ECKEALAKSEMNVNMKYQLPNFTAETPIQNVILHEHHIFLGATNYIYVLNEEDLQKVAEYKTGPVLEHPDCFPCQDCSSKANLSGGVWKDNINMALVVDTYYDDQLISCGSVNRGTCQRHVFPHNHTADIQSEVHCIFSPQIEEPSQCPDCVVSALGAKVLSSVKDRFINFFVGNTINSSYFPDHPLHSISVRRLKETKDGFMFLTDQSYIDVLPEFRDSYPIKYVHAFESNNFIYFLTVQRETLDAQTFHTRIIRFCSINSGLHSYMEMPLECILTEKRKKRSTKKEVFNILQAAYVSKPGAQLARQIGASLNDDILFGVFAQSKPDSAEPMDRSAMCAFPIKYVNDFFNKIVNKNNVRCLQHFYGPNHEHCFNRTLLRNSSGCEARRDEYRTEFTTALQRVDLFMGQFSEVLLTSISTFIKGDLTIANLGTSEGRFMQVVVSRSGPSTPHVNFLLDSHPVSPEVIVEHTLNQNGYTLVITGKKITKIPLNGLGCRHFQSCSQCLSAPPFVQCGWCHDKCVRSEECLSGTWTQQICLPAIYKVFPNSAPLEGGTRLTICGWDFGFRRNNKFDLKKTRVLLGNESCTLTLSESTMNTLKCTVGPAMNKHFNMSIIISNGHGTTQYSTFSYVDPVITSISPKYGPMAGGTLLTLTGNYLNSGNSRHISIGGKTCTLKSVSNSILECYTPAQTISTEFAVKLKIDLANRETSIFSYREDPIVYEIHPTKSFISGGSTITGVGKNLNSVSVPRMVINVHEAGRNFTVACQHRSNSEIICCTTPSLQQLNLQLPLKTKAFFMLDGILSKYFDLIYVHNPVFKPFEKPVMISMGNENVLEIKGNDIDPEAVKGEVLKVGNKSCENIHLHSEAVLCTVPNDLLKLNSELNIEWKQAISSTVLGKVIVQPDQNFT

[33] = molecular target: T11, rHuman Notch-1/Fc Chimera, CF (R&D Systems Cat#3647-TK) (human, UniProt P46531 19-526); assay: as above
T11 construct: Bought recombinant Fc chimera; Fc part of the bought chimera not given

[34] = molecular target: T12, rHuman P-Cadherin/Fc Chimera, CF (R&D Systems Cat#861-PC) (human, UniProt P22223 108-654); assay: as above
T12 construct: Bought recombinant Fc chimera; Fc part of the bought chimera not given

[35] = molecular target: T13, rHuman Erythropoietin R/Fc Chimera, CF (R&D Systems Cat#963-ER) (human, UniProt P19235 25-250); assay: as above
T13 construct: Bought recombinant Fc chimera; also called EPO R; EPO R/Fc; Fc part of the bought chimera not given
T13 sequence (looked up): T1 sequence (looked up)

B1: Fab VH5-51_IGHD5-18*01>3_IGHJ4*01 & V3-4_IGLJ1*01 (Fab, V domains shown)
VH: EVQLVQSGAEVKKPGESLKISCKGSGYSFTSYWIGWVRQMPGKGLEWMGIIYPGDSDTRYSPSFQGQVTISADKSISTAYLQWSSLKASDTAMYYCARRGYSYGYDYFDYWGQGTLVTVSS
VL: QTVVTQEPSFSVSPGGTVTLTCGLSSGSVSTSYYPSWYQQTPGQAPRTLIYSTNTRSSGVPDRFSGSILGNKAALTITGAQADDESDYYCVLYMGSGISYVFGTGTKVTVL
notes: Tested as a Fab made in E. coli; The heavy chain vector (Plasmid A) adds CH1 with His6 and Flag tags, and the lambda light chain vector (Plasmid E) adds CL; also called Wt; wildtype
- ECL signal/noise ratio [1]: 2.5
- ECL signal/noise ratio [2]: 3
- ECL signal/noise ratio [3]: 2.6
- ECL signal/noise ratio [4]: 3.4
- ECL signal/noise ratio [5]: 1.7
- ECL signal/noise ratio [6]: 1.4
- ECL signal/noise ratio [7]: 2.9
- ECL signal/noise ratio [8]: 1.2
- ECL signal/noise ratio [9]: 2.2
- ECL signal/noise ratio [10]: 1.8
- ECL signal/noise ratio [11]: 1.1
- ECL signal/noise ratio [12]: 1.5
- ECL signal/noise ratio [13]: 1.1
- ECL signal/noise ratio [14]: 1.6
- ECL signal/noise ratio [15]: 2
- ECL signal/noise ratio [16]: 21.1
- ECL signal/noise ratio [17]: 4.4
- ECL signal/noise ratio [18]: 2.5
- ECL signal/noise ratio [19]: 1.6
- ECL signal/noise ratio [20]: 2.6
- ECL signal/noise ratio [21]: 1.8
- ECL signal/noise ratio [22]: 2.2
- ECL signal/noise ratio [23]: 36.3
- ECL signal/noise ratio [24]: 3.1
- ECL signal/noise ratio [25]: 2.9
- ECL signal/noise ratio [26]: 1.3
- ECL signal/noise ratio [27]: 1.6
- ECL signal/noise ratio [28]: 2.8

B2: Fab VH5-51_IGHD5-18*01>3_IGHJ4*01 G100K/G104T/T58A & V3-4_IGLJ1*01 (Fab, V domains shown)
VH: B1 VH with T58A, G100K, G104T
VL: B1 VL
notes: Fab expressed in E. coli: VH joined to CH1 (Plasmid A, His6 and Flag tags), VL joined to lambda CL (Plasmid E); also called H:KT T58A
- ELISA (Signal-Noise) [29]: 0.07
- ECL signal [30]: 12900

More lines, now with the values ahead:

- ECL signal [31]: 761
- ECL signal [32]: 735
- ECL signal [33]: 561
- ECL signal [34]: 302
- ECL signal [35]: 424
B3: Fab VH5-51_IGHD5-18*01>3_IGHJ4*01 G100K/G104T W33A & V3-4_IGLJ1*01 (Fab, V domains shown)
VH: B1 VH with W33A, G100K, G104T
VL: B1 VL
notes: Fab made in E. coli; VH cloned into Plasmid A (CH1, His6 and Flag tags), lambda VL into Plasmid E (lambda CL); also called KT W33A

- ELISA (Signal-Noise) [29]: 0.05
- ECL signal [30]: 8430
B4: Fab VH5-51_IGHD5-18*01>3_IGHJ4*01 G100K/G104T/S56G & V3-4_IGLJ1*01 (Fab, V domains shown)
VH: B1 VH with S56G, G100K, G104T
VL: B1 VL
notes: Fab expressed in E. coli: VH joined to CH1 (Plasmid A, His6 and Flag tags), VL joined to lambda CL (Plasmid E); also called H:KT S56G
